Ends that are not written are not given here.
B1: pGADT7 (empty vector; the isolated GAL4 activating domain itself) (other, UniProt P04386 768-881, looked up)
chain: ANFNQSGNIADSSLSFTFTNSSNGPNLITTQTNSQALSQPIASSNVHDNFMNNEITASKIDDGNNSKPLSPGWTDQTAYNAFGITTGMFNTTTMDDVYNYLFDDEDTPPNPKKE
notes: also called empty pGADT7
B2: NTB (1-44)-CFP (other)
chain: MVRFGDELGGRYGGPGGGERARGGGAGGAGGPGPGGLQPGQRVL-{ECFP}
modifications: also: ECFP fused C-terminally, linker not given here
notes: not shown: ECFP fused C-terminal to the test molecule
B3: I-IIB(357-482)-pGADT7 (I-II loop of α1B fused to the GAL4 activation domain) (other, human, UniProt Q00975 357-482, looked up, not shown: large carriers)
chain: GEFAKERERVENRRAFLKLRRQQQIERELNGYLEWIFKAEEVMLAEEDRNAEEKSPLDVLKRAATKKSRNDLIHAEEGEDRFADLCAVGSPFARASLKSGKTESSSYFRRKEKMFRFFIRRMVKAQ
notes: range 357-482; Yeast two-hybrid fusion; GAL4 domain placed first by the vector's design; also called I-IIB (pGADT7)
B4: NTB (56-95)-CFP (other)
chain: MALYNPIPVKQNCFTVNRSLFVFSEDNVVRKYAKRITEWP-{ECFP}
modifications: also: ECFP fused C-terminally, linker not given here
notes: as for B2
B5: I-IIB(436-482)-pGADT7 (other, human, UniProt Q00975 436-482, looked up, not shown: large carriers)
chain: DRFADLCAVGSPFARASLKSGKTESSSYFRRKEKMFRFFIRRMVKAQ
notes: range 436-482; Yeast two-hybrid fusion; GAL4 domain placed first by the vector's design
B6: NTB(1-55)-pGBKT7 (other)
chain: MKLLSSIEQACDICRLKKLKCSKEKPKCAKCLKNNWECRYSPKTKRSPLTRAHLTEVESRLERLEQLFLLIFPREDLDMILKMDSLQDIKALLTGLFVQDNVNKDAVTDRLASVETDMPLTLRQHRISATSSSEESSNKGQRQLTVSMVRFGDELGGRYGGPGGGERARGGGAGGAGGPGPGGLQPGQRVLYKQSIAQRART
notes: Yeast two-hybrid fusion; GAL4 domain placed first by the vector's design
B7: NTB-CFP (other)
chain: MVRFGDELGGRYGGPGGGERARGGGAGGAGGPGPGGLQPGQRVLYKQSIAQRARTMALYNPIPVKQNCFTVNRSLFVFSEDNVVRKYAKRITEWP
notes: also called NTB-CFP peptide; NTB (1-95) in FRET; not shown: ECFP fused C-terminal to the test molecule
B8: I-IIB(398-435)-pGADT7 (other, human, UniProt Q00975 398-435, looked up, not shown: large carriers)
chain: VMLAEEDRNAEEKSPLDVLKRAATKKSRNDLIHAEEGE
notes: range 398-435; Yeast two-hybrid fusion; GAL4 domain placed first by the vector's design
B9: lam-pGBKT7 (lamin C attached to the GAL4 binding domain) (other, UniProt P04386 1-147, looked up)
chain: MKLLSSIEQACDICRLKKLKCSKEKPKCAKCLKNNWECRYSPKTKRSPLTRAHLTEVESRLERLEQLFLLIFPREDLDMILKMDSLQDIKALLTGLFVQDNVNKDAVTDRLASVETDMPLTLRQHRISATSSSEESSNKGQRQLTVSSEEVVSREVSGIKAAYEAELGDARKTLDSVAKERARLQLELSKVREEFKELKARNTKKEGDLIAAQARLKDLEALLNSKEAALSTALSEKRTLEGELHDLRGQVAKLEAALGEAKKQLQDEMLRRVDAENRLQTMKEELDFQKNIYSEELRETKRRHETRLVEID
B10: I-IIB(357-397)-pGADT7 (other, human, UniProt Q00975 357-397, looked up, not shown: large carriers)
chain: GEFAKERERVENRRAFLKLRRQQQIERELNGYLEWIFKAEE
notes: range 357-397; Yeast two-hybrid fusion; GAL4 domain placed first by the vector's design; Equating this segment with the 'N-terminal third' of the text is an inference; also called N-terminal third of the I-IIB loop; NH3-terminal third of the I-IIB loop
B11: I-IIB(357-482)-pGBKT7 (I-II loop of α1B fused to the GAL4 binding domain) (other, UniProt P04386 1-147, looked up)
chain: MKLLSSIEQACDICRLKKLKCSKEKPKCAKCLKNNWECRYSPKTKRSPLTRAHLTEVESRLERLEQLFLLIFPREDLDMILKMDSLQDIKALLTGLFVQDNVNKDAVTDRLASVETDMPLTLRQHRISATSSSEESSNKGQRQLTVSGEFAKERERVENRRAFLKLRRQQQIERELNGYLEWIFKAEEVMLAEEDRNAEEKSPLDVLKRAATKKSRNDLIHAEEGEDRFADLCAVGSPFARASLKSGKTESSSYFRRKEKMFRFFIRRMVKAQ
notes: Yeast two-hybrid fusion; GAL4 domain placed first by the vector's design; also called I-IIB (pGBKT7)
B12: NTB(1-95)-pGBKT7 (NH3 terminus of α1B fused to the GAL4 binding domain) (other)
chain: MKLLSSIEQACDICRLKKLKCSKEKPKCAKCLKNNWECRYSPKTKRSPLTRAHLTEVESRLERLEQLFLLIFPREDLDMILKMDSLQDIKALLTGLFVQDNVNKDAVTDRLASVETDMPLTLRQHRISATSSSEESSNKGQRQLTVSMVRFGDELGGRYGGPGGGERARGGGAGGAGGPGPGGLQPGQRVLYKQSIAQRARTMALYNPIPVKQNCFTVNRSLFVFSEDNVVRKYAKRITEWP
notes: Yeast two-hybrid fusion; GAL4 domain placed first by the vector's design; also called NTB (pGBKT7); full-length NTB

How the values were obtained:
[1] = molecular target: T1, NTA(2-100)pGBKT7 (NH3 terminus of the P/Q-type α1A subunit fused to the GAL4 binding domain) (UniProt P04386 1-147); assay: yeast two-hybrid auto-activation control (empty pGADT7), filter lift β-galactosidase assay, % of colonies turning blue, mean ± SEM
T1 construct: Yeast two-hybrid fusion; GAL4 domain placed first by the vector's design

[2] = molecular target: T2, NTC(1-153)-pGBKT7 (NH3 terminus of α1C fused to the GAL4 binding domain) (rabbit, UniProt P04386 1-147; P15381 1-153); assay: as above
T2 construct: Yeast two-hybrid fusion; GAL4 domain placed first by the vector's design; also called NTC (pGBKT7)

NTB(Δ45-55)-pGBKT7 [3] = molecular target: T3, NTB(Δ45-55)-pGBKT7 (human, UniProt Q00975 1-95); assay: as above
T3 construct: Yeast two-hybrid fusion; GAL4 domain placed first by the vector's design; also called NTB peptide lacking residues 45-55

NTB(1-55)-pGBKT7 [4] = molecular target: B6; assay: as above
[5] = molecular target: B12; assay: as above
[6] = molecular target: T4, CTA(1763-1928)pGBKT7 (proximal COOH terminus of the P/Q-type α1A subunit fused to the GAL4 binding domain) (UniProt P04386 1-147); assay: as above
T4 construct: Yeast two-hybrid fusion; GAL4 domain placed first by the vector's design

[7] = molecular target: T5, CTC(1525-1670)pGBKT7 (proximal third of the α1C COOH terminus fused to the GAL4 binding domain) (rabbit, UniProt P04386 1-147; P15381 1525-1670); assay: as above
T5 construct: Yeast two-hybrid fusion; GAL4 domain placed first by the vector's design; also called CTC (pGBKT7)

NTB(45-95)-pGBKT7 [8] = molecular target: T6, NTB(45-95)-pGBKT7 (human, UniProt P04386 1-147 (Saccharomyces cerevisiae entry)); assay: as above
T6 construct: Yeast two-hybrid fusion; GAL4 domain placed first by the vector's design

[9] = molecular target: T1, NTA(2-100)pGBKT7 (NH3 terminus of the …); assay: yeast two-hybrid auto-activation control (empty pGADT7), % of colonies surviving on high stringency plates, mean ± SEM
[10] = molecular target: T2, NTC(1-153)-pGBKT7 (NH3 terminus of α1C …); assay: as above
NTB(Δ45-55)-pGBKT7 [11] = molecular target: T3, NTB(Δ45-55)-pGBKT7; assay: as above
NTB(1-55)-pGBKT7 [12] = molecular target: B6; assay: as above
[13] = molecular target: B12; assay: as above
[14] = molecular target: T4, CTA(1763-1928)pGBKT7 (proximal COOH …); assay: as above
[15] = molecular target: T5, CTC(1525-1670)pGBKT7 (proximal third of …); assay: as above
NTB(45-95)-pGBKT7 [16] = molecular target: T6, NTB(45-95)-pGBKT7; assay: as above
I-IIB-YFP [17] = molecular target: T7, I-IIB-YFP (human, UniProt Q00975 357-482); assay: FRET two-hybrid in HEK293 cells
T7 construct: range 357-482; also called I-IIB in FRET; not shown: EYFP fused C-terminal to the test molecule

[18] = molecular target: T2, NTC(1-153)-pGBKT7 (NH3 terminus of α1C …); assay: yeast two-hybrid
[19] = molecular target: B9; assay: yeast two-hybrid control against lamin C, % of colonies surviving on high stringency plates, mean ± SEM
[20] = molecular target: T8, Gβ1 fused to the GAL4 activation domain (Gβ1 in pGADT7) (UniProt P62871 1-340); assay: yeast two-hybrid
T8 construct: Yeast two-hybrid fusion; GAL4 domain placed first by the vector's design; also called Gβ1 (pGADT7); Gβ1/pGADT7
T8 sequence (P62871 whole entry, the tested form may be a part): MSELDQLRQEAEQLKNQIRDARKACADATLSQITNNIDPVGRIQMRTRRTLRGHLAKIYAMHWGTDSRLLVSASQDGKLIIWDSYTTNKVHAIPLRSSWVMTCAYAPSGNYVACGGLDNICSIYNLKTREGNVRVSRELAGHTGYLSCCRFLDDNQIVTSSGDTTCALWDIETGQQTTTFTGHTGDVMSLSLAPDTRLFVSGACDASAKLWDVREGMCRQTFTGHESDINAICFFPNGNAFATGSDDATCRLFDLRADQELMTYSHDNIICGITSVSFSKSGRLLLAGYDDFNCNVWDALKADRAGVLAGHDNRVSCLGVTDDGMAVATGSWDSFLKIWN

I-IIB-YFP [21] = molecular target: T7, I-IIB-YFP; assay: FRET two-hybrid in HEK293 cells (three-cube FRET and YFP photobleaching)
[22] = molecular target: T8, Gβ1 fused to the GAL4 activation domain …; assay: yeast two-hybrid, background control
[23] = molecular target: T8, Gβ1 fused to the GAL4 activation domain …; assay: yeast two-hybrid, Gβ1 in pGADT7 against I-IIB in pGBKT7

B1 was tested, and the “Filter Lift Assay (%)” value [1] was 0.82%, the “Filter Lift Assay (%)” value [2] was 0% and the “Filter Lift Assay (%)” value (NTB(Δ45-55)-pGBKT7 [3]) was 2.5%. For the same binder, the “Filter Lift Assay (%)” value (NTB(1-55)-pGBKT7 [4]) was 1.56%, the “Filter Lift Assay (%)” value [5] was 0.14% and the “Filter Lift Assay (%)” value [6] was 0%. The “Filter Lift Assay (%)” value [7] was 0%, the “Filter Lift Assay (%)” value (NTB(45-95)-pGBKT7 [8]) was 0% and the “High Stringency (%)” value [9] was 0%. For the same binder, the “High Stringency (%)” value [10] was 1%, the “High Stringency (%)” value (NTB(Δ45-55)-pGBKT7 [11]) was 0.56% and the “High Stringency (%)” value (NTB(1-55)-pGBKT7 [12]) was 3.84%. For the same binder, the “High Stringency (%)” value [13] was 0.34%, the “High Stringency (%)” value [14] was 0.1% and the “High Stringency (%)” value [15] was 0%. The “High Stringency (%)” value (NTB(45-95)-pGBKT7 [16]) was 0%.

B2: no binding (I-IIB-YFP [17]).

In the case of B3, the binding result [18] is reported as “no binding” and the “High Stringency (%)” value [19] is reported as 0.74%.

B4: binds (I-IIB-YFP [17]).

With B5 the “High Stringency (%)” value [19] was 0%.

B6: binds [20].

B7: binds (I-IIB-YFP [21]).

In the case of B8, the “High Stringency (%)” value [19] is reported as 0.04%.

B9: no binding [22].

B10 was tested, and the “High Stringency (%)” value [19] was 0%.

B11: binds [23].

B12: binds [20].
